Assay [1] concerns the target T1, NANP 5.5-mer peptide, NP(NANP)5 (Plasmodium falciparum).
T1 chain: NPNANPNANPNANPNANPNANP
The assay can be described thus: SPR.

Assay [2] has as its target T2, KQPA peptide (PfCSP aa 95-109) (Plasmodium falciparum NF54).
T2 chain: KQPADGNPDPNANPN
The assay is described as follows: SPR. In general terms: In SPR one partner is held on a chip, and binding of the other changes the refractive index at the surface.

Assay [3] has as its target T3, NPDP peptide (PfCSP aa 101-116) (Plasmodium falciparum NF54).
T3 chain: NPDPNANPNVDPNANP
The assay can be described thus: SPR.

Assay [4] deals with T4, NANP pentamer peptide (NANP5) (Plasmodium falciparum (NF54)).
T4 chain: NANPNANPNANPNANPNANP
The assay is described as follows: crystal structure.

In assay [5] the target is T5, NANP trimer peptide (NANP3) (Plasmodium falciparum).
T5 chain: NANPNANPNANP
The assay is described as follows: ITC. (In general: In ITC the heat of successive injections is recorded.)

The target of the next assay is T6, NDN3 peptide (Plasmodium falciparum).
T6 chain: NANPNVDPNANP
The assay is described as follows: ITC.

Assay [6] concerns the target complete C-terminus of PfCSP (C-CSP) (Plasmodium falciparum NF54, UniProt P19597). The assay is described as follows: SPR.
The target in another assay is T7, DND3 peptide (Plasmodium falciparum).
T7 chain: NVDPNANPNVDP
The assay can be described thus: ITC.

Assay [7] addresses NVDP peptide (PfCSP aa 109-125) (Plasmodium falciparum NF54, UniProt P19597). The assay is described as follows: SPR.

Sequence of NVDP peptide (PfCSP aa 109-125) (P19597 109-128): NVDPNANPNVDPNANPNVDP

B1: mAb 2541 (recombinant human IgG1, kappa) (antibody, V domains shown)
VH: QVQLVESGGGVVQPGRSLRLSCAASGFTFSSYGMHWVRQTTGKGLEWVAIIWHDGSKKYYADSVKGRLTISRDNSKNTLYLQMNSLRVEDTALYYCARVGDYSDFKYGAFDIWGQGTMVTVSS
VL: DIQMTQSPSTLSASVGDRVTITCRASQSISSWLAWYQQKPGKAPNLLIYKASTLESGVPSRFSGSGSGTEFTLTISSLQPDDFATYYCQQYNSYWTFGQGTRVEIK
Consider B1, for which the binding result in [1], in [2] and in assay [3] was “binds” in each case.

B2: Fab fragment of mAb 2541 (Fab, V domains shown)
VH: B1 VH
VL: B1 VL
Take B2: the binding result in [4] is “binds”; in [5], “binds”; with NDN3 peptide, “no binding”.

B3: mAb 3246 (recombinant human IgG1, kappa) (antibody, V domains shown)
VH: QVQLVESGGGVVQPGRSLRLSCAASGFTFSGSGMHWVRQAPGKGLEWVAIIWYDGSNKFYADSVKGRFTISRDNSKNTLYLQMNSLRGEDTAVYYCARVGDGDGNYMDVWGKGTTVTVSS
VL: not shown
Regarding B3, in assay [6], the binding result is “binds”.

B4: Fab fragment of mAb 4498 (Fab, V domains shown)
VH: QVQLVESGGGVVQPGRSLRLSCAASGFTFSIYGMHWVRQAPGKGLEWVALIWYDGTNKYYTDSVKGRFTISRDNSKNTLFLQMNSVRAEDTAVYYCARDAHYSDSSGYSSWGYFDYWGQGSLVTVSS
VL: EIVLTQSPATLSLSPGERATLSCRASQSVSSYLAWYQQKPGQAPRLLIFDASIRATGIPARFSGSGSGTDFTLTISSLEPEDFAVYYCQQRSNWYTFGQGTKLEIK
B4: the binding result (in the assay with DND3 peptide; in [5]; in the assay with NDN3 peptide) was “binds” throughout.

B5: mAb 4498 (recombinant human IgG1, kappa) (antibody, V domains shown)
VH: B4 VH
VL: B4 VL
In the case of B5, the binding result in assay [7], in [1] and in [3] was “binds” throughout.
